Experimental data reported in patent US20150344570A1 (published 2015).

B1: GpH7-A5/GpH7-B3 variant E269_01G/GpL16-k0 (antibody, human IgG1, kappa)
heavy 1: not shown
heavy 2: not shown
light: DIVMTQSPLSLPVTPGEPASISCQASESLVHSNRNTYLHWYLQKPGQSPQLLIYKVSNRFSGVPDRFSGSGSGTDFTLKISRVEAEDVGVYYCSQNTHVPPTFGQGTKVEIERTVAAPSVFIFPPSDEQLKSGTASVVCLLNNFYPREAKVQWKVDNALQSGNSQESVTEQDSKDSTYSLSSTLTLSKADYEKHKVYACEVTHQGLSSPVTKSFNRGEC
notes: heterodimerized anti-glypican-3 IgG1; alteration in one H chain only; also called He Ab
B2: GpH7-A5/GpH7-B3 variant P271_15Y/GpL16-k0 (antibody, human IgG1, kappa)
heavy 1: not shown
heavy 2: not shown
light: B1 light
notes: as for B1
B3: GpH7-A5/GpH7-B3 variant E269_18N/GpL16-k0 (antibody, human IgG1, kappa)
heavy 1: not shown
heavy 2: not shown
light: B1 light
notes: as for B1
B4: GpH7-A5/GpH7-B3 variant H268_08L/GpL16-k0 (antibody, human IgG1, kappa)
heavy 1: not shown
heavy 2: not shown
light: B1 light
notes: as for B1
B5: GpH7-A5/GpH7-B3 variant D265_14T/GpL16-k0 (antibody, human IgG1, kappa)
heavy 1: not shown
heavy 2: not shown
light: B1 light
notes: as for B1
B6: GpH7-A5/GpH7-B3 variant E269_19Q/GpL16-k0 (antibody, human IgG1, kappa)
heavy 1: not shown
heavy 2: not shown
light: B1 light
notes: as for B1
B7: GpH7-A5/GpH7-B3 variant E269_20W/GpL16-k0 (antibody, human IgG1, kappa)
heavy 1: not shown
heavy 2: not shown
light: B1 light
notes: as for B1
B8: GpH7-A5/GpH7-B3 variant E269_02A/GpL16-k0 (antibody, human IgG1, kappa)
heavy 1: not shown
heavy 2: not shown
light: B1 light
notes: as for B1
B9: GpH7-A5/GpH7-B3 variant E269_12R/GpL16-k0 (antibody, human IgG1, kappa)
heavy 1: not shown
heavy 2: not shown
light: B1 light
notes: as for B1
B10: GpH7-A5/GpH7-B3 variant Q295_01G/GpL16-k0 (antibody, human IgG1, kappa)
heavy 1: not shown
heavy 2: not shown
light: B1 light
notes: as for B1
B11: GpH7-A5/GpH7-B3 variant E269_07I/GpL16-k0 (antibody, human IgG1, kappa)
heavy 1: not shown
heavy 2: not shown
light: B1 light
notes: as for B1
B12: GpH7-A5/GpH7-B3 variant P271_20W/GpL16-k0 (antibody, human IgG1, kappa)
heavy 1: not shown
heavy 2: not shown
light: B1 light
notes: as for B1
B13: GpH7-A5/GpH7-B3 variant D265_16H/GpL16-k0 (antibody, human IgG1, kappa)
heavy 1: not shown
heavy 2: not shown
light: B1 light
notes: as for B1
B14: GpH7-A5/GpH7-B3 variant E269_15Y/GpL16-k0 (antibody, human IgG1, kappa)
heavy 1: not shown
heavy 2: not shown
light: B1 light
notes: as for B1
B15: GpH7-A5/GpH7-B3 variant H268_06M/GpL16-k0 (antibody, human IgG1, kappa)
heavy 1: not shown
heavy 2: not shown
light: B1 light
notes: as for B1
B16: GpH7-A5/GpH7-B3 variant D265_11K/GpL16-k0 (antibody, human IgG1, kappa)
heavy 1: not shown
heavy 2: not shown
light: B1 light
notes: as for B1
B17: GpH7-A5/GpH7-B3 variant E269_06M/GpL16-k0 (antibody, human IgG1, kappa)
heavy 1: not shown
heavy 2: not shown
light: B1 light
notes: as for B1
B18: GpH7-A5/GpH7-B3 variant P271_04F/GpL16-k0 (antibody, human IgG1, kappa)
heavy 1: not shown
heavy 2: not shown
light: B1 light
notes: as for B1
B19: GpH7-A5/GpH7-B3 variant E269_11K/GpL16-k0 (antibody, human IgG1, kappa)
heavy 1: not shown
heavy 2: not shown
light: B1 light
notes: as for B1
B20: GpH7-A5/GpH7-B3 variant E269_04F/GpL16-k0 (antibody, human IgG1, kappa)
heavy 1: not shown
heavy 2: not shown
light: B1 light
notes: as for B1
B21: GpH7-A5/GpH7-B3 variant E269_13S/GpL16-k0 (antibody, human IgG1, kappa)
heavy 1: not shown
heavy 2: not shown
light: B1 light
notes: as for B1
B22: GpH7-A5/GpH7-B3 variant E269_03V/GpL16-k0 (antibody, human IgG1, kappa)
heavy 1: not shown
heavy 2: not shown
light: B1 light
notes: as for B1
B23: GpH7-A5/GpH7-B3 variant E269_16H/GpL16-k0 (antibody, human IgG1, kappa)
heavy 1: not shown
heavy 2: not shown
light: B1 light
notes: as for B1
B24: GpH7-A5/GpH7-B3 variant D265_18N/GpL16-k0 (antibody, human IgG1, kappa)
heavy 1: not shown
heavy 2: not shown
light: B1 light
notes: as for B1
B25: GpH7-A5/GpH7-B3 variant D265_12R/GpL16-k0 (antibody, human IgG1, kappa)
heavy 1: not shown
heavy 2: not shown
light: B1 light
notes: as for B1
B26: GpH7-A5/GpH7-B3 variant H268_11K/GpL16-k0 (antibody, human IgG1, kappa)
heavy 1: not shown
heavy 2: not shown
light: B1 light
notes: as for B1
B27: GpH7-A5/GpH7-B3 variant E269_08L/GpL16-k0 (antibody, human IgG1, kappa)
heavy 1: not shown
heavy 2: not shown
light: B1 light
notes: as for B1
B28: GpH7-A5/GpH7-B3 variant D265_19Q/GpL16-k0 (antibody, human IgG1, kappa)
heavy 1: not shown
heavy 2: not shown
light: B1 light
notes: as for B1
B29: GpH7-A5/GpH7-B3 variant E269_14T/GpL16-k0 (antibody, human IgG1, kappa)
heavy 1: not shown
heavy 2: not shown
light: B1 light
notes: as for B1
B30: GpH7-A5/GpH7-B3 variant D265_13S/GpL16-k0 (antibody, human IgG1, kappa)
heavy 1: not shown
heavy 2: not shown
light: B1 light
notes: as for B1
B31: GpH7-A5/GpH7-B3 variant D265_10E/GpL16-k0 (antibody, human IgG1, kappa)
heavy 1: not shown
heavy 2: not shown
light: B1 light
notes: as for B1

Legend:
FcγRIIa R [1] = target: T1, FcγRIIa R (human, UniProt P12318 34-217); assay: SPR (Biacore); He/Con_2aR divided by He/Con_2b (FcγRIIa R over FcγRIIb)
T1 construct: extracellular domain; also called FcgRIIa R type; 2aR
T1 sequence (looked up): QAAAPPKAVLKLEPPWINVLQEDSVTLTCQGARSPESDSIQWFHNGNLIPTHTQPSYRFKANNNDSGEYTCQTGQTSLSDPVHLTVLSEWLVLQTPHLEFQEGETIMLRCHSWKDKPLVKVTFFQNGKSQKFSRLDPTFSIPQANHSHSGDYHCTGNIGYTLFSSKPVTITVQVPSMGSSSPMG

FcγRIIa R [2] = target: T1, FcγRIIa R; assay: SPR (Biacore), captured antibody, FcγR as analyte; relative binding, control GpH7-A5/GpH7-B3/GpL16-k0 = 100
Procedure: (§1) The heterodimerized antibodies He Abs in which one of the H chains was introduced with an alteration were assayed for their binding activities to each activating FcγR and inhibitory FcγR according to the method described in Example 4. […] The activating FcγRs in FIGS. 26, 27, 28, and 29 are FcγRIa, FcγRIIa (R), FcγRIIa (H), and FcγRIIIa, respectively.
(§2) Analysis of interaction between objective antibody and the FcγR was carried out using Biacore T100 (GE Healthcare). HBS-EP+ (GE Healthcare) was used as the running buffer, and the measurement temperature was set to 25° C. Chips produced by immobilizing the antigen peptide by the amine coupling method to a Series S Sencor Chip CM5 (GE Healthcare), or alternatively, chips produced by allowing preliminarily biotinylated antigen peptides to interact with and immobilize onto a Series S Sensor Chip SA (certified) (GE Healthcare) were used. Antibodies of interest were captured onto an antigen peptide-immobilized chip, and allowed to interact to each FcγR diluted with running buffer. To regenerate and repeatedly use the chip, the antibodies captured on the chip were washed off by reacting 10 mM glycine-HCl, pH 1.5.

FcγRIIb = target: T2, FcγRIIb (human, UniProt P31994 43-217); assay: as above
T2 construct: extracellular domain; also called FcgRIIb; 2b
T2 sequence (looked up): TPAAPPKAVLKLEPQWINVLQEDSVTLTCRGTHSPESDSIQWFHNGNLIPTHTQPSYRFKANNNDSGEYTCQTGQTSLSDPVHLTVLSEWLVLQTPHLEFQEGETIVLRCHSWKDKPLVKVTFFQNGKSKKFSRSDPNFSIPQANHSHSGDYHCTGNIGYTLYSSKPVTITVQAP
Procedure: as §1, §2

| He_2aR/2b (IIaR/IIb) (FcγRIIa R [1]) [ratio] | He/Con_2aR (FcγRIIa R [2]) [control = 100] | He/Con_2b (FcγRIIb) [control = 100] | Binder |
| --- | --- | --- | --- |
| 1.27 | 65.3 | 51.5 | B1 |
| 1.35 | 70.7 | 52.3 | B2 |
| 1.32 | 59.2 | 44.8 | B3 |
| 1.25 | 85 | 67.8 | B4 |
| 1.61 | 25.8 | 16 | B5 |
| 1.31 | 57.8 | 44.3 | B6 |
| 1.3 | 55.5 | 42.5 | B7 |
| 1.31 | 65.3 | 49.9 | B8 |
| 1.39 | 35 | 25.2 | B9 |
| 1.32 | 60.9 | 46 | B10 |
| 1.34 | 58.8 | 43.9 | B11 |
| 1.33 | 77.3 | 58.1 | B12 |
| 1.51 | 58 | 38.3 | B13 |
| 1.29 | 57.6 | 44.7 | B14 |
| 1.23 | 81 | 65.7 | B15 |
| 2.26 | 33.7 | 14.9 | B16 |

| He_2aR/2b (IIaR/IIb) (FcγRIIa R [1]) [ratio] | He/Con_2aR (FcγRIIa R [2]) [control = 100] | He/Con_2b (FcγRIIb) [control = 100] | Binder |
| --- | --- | --- | --- |
| 1.32 | 61.7 | 46.7 | B17 |
| 1.28 | 75.9 | 59.5 | B18 |
| 2.14 | 38.1 | 17.8 | B19 |
| 1.29 | 58.2 | 45 | B20 |
| 1.28 | 61.2 | 47.8 | B21 |
| 1.3 | 58.8 | 45.1 | B22 |
| 1.32 | 50.7 | 38.5 | B23 |
| 2.02 | 12.4 | 6.1 | B24 |
| 2.15 | 32.2 | 15 | B25 |
| 1.21 | 100 | 83 | B26 |
| 1.33 | 57.2 | 42.9 | B27 |
| 1.64 | 54.8 | 33.4 | B28 |
| 1.3 | 66 | 50.6 | B29 |
| 1.81 | 20.5 | 11.3 | B30 |
| 1.52 | 58.2 | 38.2 | B31 |
